Measurements: patent US20240018226A1 (PROTHENA BIOSCIENCES, published 2024)

What was measured:
[1] = biological target: T1, 3R2N-tau (Swiss-Prot P10636-5) (human, UniProt P10636 2-758); experiment: surface plasmon resonance
T1 construct: The construct used in SPR is not described

[2] = biological target: T2, 4R2N-tau (Swiss-Prot P10636-8) (human, UniProt P10636 2-758); experiment: surface plasmon resonance
T2 construct: The construct used in SPR is not described; also called 441 amino acid tau protein
T2 sequence (P10636 other isoform, or with tags, fused parts or gaps limits assumed): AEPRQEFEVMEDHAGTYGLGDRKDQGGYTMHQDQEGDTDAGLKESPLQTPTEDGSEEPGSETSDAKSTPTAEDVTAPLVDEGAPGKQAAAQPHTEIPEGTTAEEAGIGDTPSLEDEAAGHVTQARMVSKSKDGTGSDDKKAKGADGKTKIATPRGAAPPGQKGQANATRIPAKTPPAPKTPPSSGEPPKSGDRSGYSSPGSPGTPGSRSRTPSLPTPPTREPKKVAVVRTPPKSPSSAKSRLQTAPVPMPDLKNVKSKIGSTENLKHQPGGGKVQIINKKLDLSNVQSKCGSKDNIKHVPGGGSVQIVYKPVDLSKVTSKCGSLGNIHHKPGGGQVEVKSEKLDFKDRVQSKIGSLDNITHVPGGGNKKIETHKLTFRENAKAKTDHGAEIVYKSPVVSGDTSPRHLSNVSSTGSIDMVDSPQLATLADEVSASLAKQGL

T1 sequence (P10636 other isoform, or with tags, fused parts or gaps limits assumed): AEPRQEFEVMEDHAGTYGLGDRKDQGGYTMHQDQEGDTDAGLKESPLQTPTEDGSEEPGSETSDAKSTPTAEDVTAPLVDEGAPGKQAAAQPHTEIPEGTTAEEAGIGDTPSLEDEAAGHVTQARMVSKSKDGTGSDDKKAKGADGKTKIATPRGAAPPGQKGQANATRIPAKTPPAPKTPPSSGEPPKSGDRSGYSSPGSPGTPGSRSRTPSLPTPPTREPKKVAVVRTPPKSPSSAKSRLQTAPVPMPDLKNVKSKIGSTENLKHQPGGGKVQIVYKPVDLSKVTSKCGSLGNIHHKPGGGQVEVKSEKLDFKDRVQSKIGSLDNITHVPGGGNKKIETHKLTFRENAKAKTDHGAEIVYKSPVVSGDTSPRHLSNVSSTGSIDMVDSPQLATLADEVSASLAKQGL

B1: hu3D6VHv1bA11/L2-DIM4 (antibody, human IgG1, kappa, V domains shown)
VH: EVQLVQSGAEVVKPGATVKISCKASGFNIKDYYLHWVRQRPGQGLEWIGWIDPENGDTVYDPKFQGRATITADTSTDTAYLQLGSLTSEDTAVYFCSTLDFWGQGTLVTVSS
VL: DVVMTQSPLSLPVTLGQPASISCKSSQSLLDSDGKTYLNWLQQRPGQSPRRLIYLVGKRDSGVPDRFSGSGSGTDFTLKISRVEAEDVGVYYCWQGTHFPYTFGGGTKLEIKR
notes: also called PRX005; humanized 3D6 variant
For B1, which Kd [1] is on record?
Its Kd is 154 pM.

What about the Kd [2] of the same binder?
The Kd was 206 pM.
